For one molecule, koff results are on record in publication PMC10119233 (2022).

The target of the assay is Recombinant Fc-tagged hDLL4 (human, UniProt Q9NR61 27-529). The experiment in a line: SPR. In general terms: Surface plasmon resonance follows binding to a sensor surface in real time, without labels.
Chain of Recombinant Fc-tagged hDLL4 (Q9NR61 27-529): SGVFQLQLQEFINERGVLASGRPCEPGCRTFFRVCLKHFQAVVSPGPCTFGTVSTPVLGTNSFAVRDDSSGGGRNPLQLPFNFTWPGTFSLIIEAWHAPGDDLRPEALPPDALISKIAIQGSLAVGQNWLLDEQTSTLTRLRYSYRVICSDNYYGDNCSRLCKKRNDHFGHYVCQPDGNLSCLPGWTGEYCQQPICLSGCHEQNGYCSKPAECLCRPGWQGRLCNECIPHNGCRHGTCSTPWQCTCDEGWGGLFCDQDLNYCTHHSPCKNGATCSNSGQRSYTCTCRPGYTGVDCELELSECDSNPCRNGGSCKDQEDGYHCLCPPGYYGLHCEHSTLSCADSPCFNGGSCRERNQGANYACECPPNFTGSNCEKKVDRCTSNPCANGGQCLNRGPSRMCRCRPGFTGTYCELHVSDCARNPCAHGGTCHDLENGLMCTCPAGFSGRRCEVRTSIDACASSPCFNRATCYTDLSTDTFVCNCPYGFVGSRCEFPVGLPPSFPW

B1: N4_(10-14)Fc, Notch4 EGF-like repeats 10–14 fused to human IgG Fc (Fc fusion)
chain: RGLLCGSFPEPCANGGTCLSLSLGQGTCQCAPGFLGETCQFPDPCQNAQLCQNGGSCQALLPAPLGLPSSPSPLTPSFLCTCLPGFTGERCQAKLEDPCPPSFCSKRGRCHIQASGRPQCSCMPGWTGEQCQLRDFCSANPCVNGGVCLATYPQIQCHCPPGFEGHACERDVNECFQDPGPCPKGTSCHNTLGSFQCLCPVGQEGPRCELRAGPCPPRGCSNGGTCQLMPEKDSTFHLCLCPPGFIGPDCEVNPDNCVSHQCQNGGTCQDGLDTYTCLCPETWTGWDCSEDVDECETQGPPHCRNGGTCQNSAGSFHCVCVSGWGGTSCEENLDDCIAATCAPGSTCIDRVGSFSCLCPPGRTGLLCHLEDMCLSQPCHGDAQCSTNPLTGSTLCLCQPGYSGPTCHQDLDECLMAQQGPSPCEHGGSCLNTPGSFNCLCPPGYTGSRCEADHNECLSQPCHPGSTCLDLLATFHCLCPPGLEGQLCEVETNECASAPCLNHADCHDLLNGFQCICLPGFSGTRCEEDIDECRSSPCANGGQCQDQPGAFHCKCLPGFEGPRCQTEVDECLSDPCPVGASCLDLPGAFFCLCPSGFTGQLCEVPLCAPNLCQPKQICKDQKDKANCLCPDGSPGCAPPEDNCTCHHGHCQRSSCVCDVGWTGPECEAELGGCISAPCAHGGTCYPQPSGYNCTCPTGYTGPTCSEEMTACHSGPCLNGGSCNPSPGGYYCTCPPSHTGPQCQTSTDYCVSAPCFNGGTCVNRPGTFSCLCAMGFQGPRCEGKLRPSCADSPCRNRATCQDSPQGPRCLCPTGYTGGSCQTLMDLCAQKPCPRNSHCLQTGPSFHCLCLQGWTGPLCNLPLSSCQKAALSQGIDVSSLCHNGGLCVDSGPSYFCHCPPGFQGSLCQDHVNPCESRPCQNGATCMAQPSGYLCQCAPGYDGQNCSKELDACQSQPCHNHGTCTPKPGGFHCACPPGFVGLRCEGDVDECLDQPCHPTGTAACHSLANAFYCQCLPGHTGQWCEVEIDPCHSQPCFHGGTCEATAGSPLGFICHCPKGFEGPTCSHRAPSCGFHHCHHGGLCLPSPKPGFPPRCACLSGYGGPDCLTPPAPKGCGPPSPCLYNGSCSETTGLGGPGFRCSCPHSSPGPRCQKPGAKGCEGRSGDGACDAGCSGPGGNWDGGDCSLGVPDPWKGCPSHSRCWLLFRDGQCHPQCDSEECLFDGYDCETPPACTPAYDQYCHDHFHNGHCEKGCNTAECGWDGGDCRPEDGDPEWGPSLALLVVLSPPALDQQLFALARVLSLTLRVGLWVRKDRDGRDMVYPYPGARAEEKLGGTRDPTYQERAAPQTQPLGKETDSLSAGFVVVMGVDLSRCGPDHPASRCPWDPGLLLRFLAAMAAVGALEPLLPGPLLAVHPHAGTAPPANQLPWPVLCSPVAGVILLALGALLVLQLIRRRRREHGALWLPPGFTRRPRTQSAPHRRRPPLGEDSIGLKALKPKAEVDEDGVVMCSGPEEGEEVGQAEETGPPSTCQLWSLSGGCGALPQAAMLTPPQESEMEAPDLDTRGPDGVTPLMSAVCCGEVQSGTFQGAWLGCPEPWEPLLDGGACPQAHTVGTGETPLHLAARFSRPTAARRLLEAGANPNQPDRAGRTPLHAAVAADAREVCQLLLRSRQTAVDARTEDGTTPLMLAARLAVEDLVEELIAAQADVGARDKWGKTALHWAAAVNNARAARSLLQAGADKDAQDNREQTPLFLAAREGAVEVAQLLLGLGAARELRDQAGLAPADVAHQRNHWDLLTLLEGAGPPEARHKATPGREAGPFPRARTVSVSVPPHGGGALPRCRTLSAGAGPRGGGACLQARTWSVDLAARGGGAYSHCRSLSGVGAGGGPTPRGRRFSAGMRGPRPNPAIMRGRYGVAAGRGGRVSTDDWPCDWVALGACGSASNIPIPPPCLTPSPERGSPQLDCGPPALQEMPINQGGEGKK
Consider B1, for which the koff (usually the first-order rate constant of dissociation) is 0.0099 s⁻¹.
